Data from the supplement of paper PMC7125110.
± gives the standard error. For some of these results: This sample holds only a part of the variants without activity.

B1: glmS ribozyme (parent)
chain: AUAAAAGCGCCAGAACUACAGAAAUGUAGUUGACGAGGAGGAGGUUUAUCGAAUUUUCGGCGGAUGCCUCCAAA

Assays:
Conditions in all cases: with glucosamine-6-phosphate
[1] = variants of: B1; assay: kcat; higher = faster cleavage; RNA array
How it was run: (§1)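 The measurements used barcoded ribozyme variants on sequenced MiSeq chips, transcribed in situ by E. coli RNA polymerase and tracked at 37 °C with a hybridised Cy3 probe. Glucosamine-6-phosphate, 40 μM to 10 mM in HEPES/KCl/Mg(OAc)2 buffer, was flowed in while tiles were imaged over ~14 h. Baseline-normalised signals, also normalised to non-cleaving reference variants, gave per-tile medians that were fit to one- or two-exponential decays for kobs. kcat and KM resulted from weighted Michaelis–Menten fits across concentrations.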

[2] = variants of: B1; assay: self-cleavage kobs at 160 uM GlcN6P; higher = faster cleavage; RNA array
How it was run: as §1

[3] = variants of: B1; assay: self-cleavage kobs at 640 uM GlcN6P; higher = faster cleavage; RNA array
How it was run: as §1

[4] = variants of: B1; assay: self-cleavage kobs at 2500 uM GlcN6P; higher = faster cleavage; RNA array
How it was run: as §1

[5] = variants of: B1; assay: self-cleavage kobs at 10000 uM GlcN6P; higher = faster cleavage; RNA array
How it was run: as §1

[6] = variants of: B1; assay: self-cleavage kobs at 40 uM GlcN6P; higher = faster cleavage; RNA array
How it was run: as §1

[7] = variants of: B1; assay: KM; higher = weaker cofactor use; RNA array
How it was run: as §1

Row | Variant | kcat [1] | self-cleavage kobs at 160 uM GlcN6P [2] | self-cleavage kobs at 640 uM GlcN6P [3] | self-cleavage kobs at 2500 uM GlcN6P [4] | self-cleavage kobs at 10000 uM GlcN6P [5] | self-cleavage kobs at 40 uM GlcN6P [6] | KM [7]
1 | C58G C68U | 4.76e-05 ± 7e-06 s⁻¹ | 7.05e-05 ± 1.9e-05 s⁻¹ | 5.45e-05 ± 1.2e-05 s⁻¹ | 4.14e-05 ± 1.3e-05 s⁻¹ | 4.34e-05 ± 7.8e-06 s⁻¹ |  | 
2 | A42G U46G | 0.017 ± 0.0083 s⁻¹ | 0.000694 ± 0.00017 s⁻¹ | 0.00167 ± 0.00038 s⁻¹ | 0.0074 ± 0.0015 s⁻¹ | 0.0115 ± 0.0033 s⁻¹ | 0.000254 ± 6.6e-05 s⁻¹ | 
3 | U31A A39U | 0.0125 ± 0.0029 s⁻¹ | 0.000508 ± 8.4e-05 s⁻¹ | 0.00196 ± 0.00029 s⁻¹ | 0.00802 ± 0.0015 s⁻¹ | 0.00871 ± 0.0014 s⁻¹ | 0.000161 ± 2.9e-05 s⁻¹ | 3370 ± 1000 µM
4 | A14U A33U A42G | 9.54e-05 ± 3.1e-05 s⁻¹ |  |  | 7.08e-05 ± 1.9e-05 s⁻¹ | 7.49e-05 ± 2.6e-05 s⁻¹ |  | 
5 | A15U U47A | 0.00433 ± 0.0014 s⁻¹ | 0.000273 ± 6.7e-05 s⁻¹ | 0.000846 ± 0.00036 s⁻¹ | 0.00263 ± 0.00057 s⁻¹ | 0.00356 ± 0.0009 s⁻¹ | 0.00015 ± 3.6e-05 s⁻¹ | 1960 ± 890 µM
6 | C50G A52G | 2.65e-05 ± 7.5e-06 s⁻¹ | 3.58e-05 ± 1.7e-05 s⁻¹ |  | 3.29e-05 ± 1.4e-05 s⁻¹ |  |  | 
7 | C16U G44A | 0.000353 ± 9.4e-05 s⁻¹ |  | 7.56e-05 ± 1.5e-05 s⁻¹ | 0.000392 ± 7.1e-05 s⁻¹ | 0.000277 ± 3.6e-05 s⁻¹ |  | 
8 | A52U U55G | 0.000246 ± 4.9e-05 s⁻¹ |  | 7.12e-05 ± 1.2e-05 s⁻¹ | 0.000109 ± 1.5e-05 s⁻¹ | 0.000221 ± 2.4e-05 s⁻¹ |  | 2150 ± 980 µM
9 | A6U U46C | 2.4e-05 ± 7.8e-07 s⁻¹ | < 1e-05 s⁻¹ |  |  |  |  | 2710 ± 290 µM
10 | A12C G59C | 1.09e-05 ± 2.5e-06 s⁻¹ |  |  |  |  |  | 
11 | A12C G59A | < 1e-05 s⁻¹ | < 1e-05 s⁻¹ |  |  |  | < 1e-05 s⁻¹ | 
12 | U55C U56C | 9.63e-05 ± 1.9e-05 s⁻¹ |  | 4.92e-05 ± 2e-05 s⁻¹ | 5.28e-05 ± 1e-05 s⁻¹ | 8.84e-05 ± 1.5e-05 s⁻¹ |  | 
13 | U45A A64C | 0.000366 ± 4.6e-05 s⁻¹ |  | 7.26e-05 ± 1.9e-05 s⁻¹ | 0.000193 ± 3.8e-05 s⁻¹ | 0.000277 ± 7.6e-05 s⁻¹ |  | 2520 ± 570 µM
14 | A6U G40U | 2.6e-05 ± 7e-07 s⁻¹ |  |  |  | 1.8e-05 ± 7.6e-06 s⁻¹ |  | 4450 ± 330 µM
15 | U46G U49G | 9.12e-05 ± 1.4e-05 s⁻¹ |  |  | 8.04e-05 ± 1.8e-05 s⁻¹ | 7.66e-05 ± 1.7e-05 s⁻¹ | < 1e-05 s⁻¹ | 
16 | G13U U47G | 0.000262 ± 5.2e-05 s⁻¹ |  | 4.72e-05 ± 7.2e-06 s⁻¹ | 0.000158 ± 1.5e-05 s⁻¹ | 0.00019 ± 2.5e-05 s⁻¹ |  | 2420 ± 890 µM
17 | C11U U65G | 0.000263 ± 6.3e-05 s⁻¹ |  | 6.28e-05 ± 3.1e-05 s⁻¹ |  | 0.000227 ± 9.2e-05 s⁻¹ | < 1e-05 s⁻¹ | 2580 ± 1200 µM
